Assay results as given in the supplement of paper PMC9170038.

System: MS2 coat protein
Experiment: apparent KD of MS2 coat protein; higher = weaker reporter binding
Details: Eterna round: R107
How it was run: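 Apparent KD stands for the median, per design, of fits to normalised cluster binding curves. The curves came from titrating on-chip-transcribed RNA switches on Illumina sequencing clusters with SNAP-549-labelled MS2 coat protein, twofold from 0.7 or 1.5 nM to 3 µM. Buffer was 100 mM Tris-HCl pH 7.5, 80 mM KCl, 4 mM MgCl2, without or with constant ligand.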

[1] = input ligand: theophylline 20 uM
[2] = input ligand: tryptophan 2.4 mM
[3] = input ligand: theophylline 2 mM

| Sequence | apparent KD of MS2 coat protein (input ligand: arginine 13.2 mM) [nM] | apparent KD of MS2 coat protein [1] [nM] | apparent KD of MS2 coat protein [2] [nM] | apparent KD of MS2 coat protein (input ligand: none) [nM] | apparent KD of MS2 coat protein [3] [nM] |
| --- | --- | --- | --- | --- | --- |
| UCGAUGGUAUCUGAUACCAGUAGCGUGCGUUACAUGAGGAUCACCCAUGUGCCUAUACUUUACCCUUGGCAGCAGUGGAUUCGAU [theeternabot_sameState_MS2_Theo_B_22] | 57.1 | 144 | 241 | – | – |
| GGACUAACCAGAAGGAGCGGCACGCAGAAACUGCAAUUUCCUCCGCACGAGGAUCACCCGUGUCAGGUAGGUCGCUGGUUAGUCG | 21.8 | 27.5 | 25.4 | 20.4 | 24.5 |
| GGUCUCUGGAGCGAUACCAGCUUAAUUGUACUGGCCAGGUACAUGAGGAUCACCCAUGUAAGCCCUUGGCAGCGCUCCAGAGACC [#1 Exclusion - Theophylline B Attempt #12 (HarryS)] | 10.6 | 13.6 | 11.6 | 12.1 | 24 |
| GGAUCCAUCCGAAGGAGCGUCGGAAAUGGGUAAACAUGAGGAUCACCCAUGUAAAGGGAACGGCAGGUAGGUCGCGGAUGGAUCC [#25 Same State - Arginine B] | 132 | 167 | 195 | 99.1 | 157 |
| UUUUUCGUAGGUUAUAGUUUAGAAACUGAAGGAGCGUGGUAAUACACAGGUAGGUCGCAGAUUUUACAUGAGGAUCACCCAUGUU [JR_ExcArginiA_Sub013] | 23.5 | 27.6 | 22.7 | 24.1 | 25.1 |
| CGUCGAGACUGAAGGAGCGAGAUAACAACAUUGGGUCUCAACAUGAGGAUCACCCAUGUAUCUCAGGUAGGUCGCGGUGUCACCG [Exclusion Arginine B GF20] | 137 | 302 | 298 | 330 | 484 |
| GCAUCCUAGUCGGCCGCCACUGGUACGAACACCUUCACCCGUGUGCACAUGAGGAUCACCCAUGUUAGGACCGGGACUAGGAUGC [SSTryp B #21] | 10.3 | 11 | – | – | 8.45 |
| AUGUCACAUGAGGAUCACCCAUGUAUGGAUACCAGUUUAGUGAAUAACCCUUGGCAGCCAAGGAUGCGACAGAAAUCCGGAAAAC [theeternabot_sameState_MS2_Theo_A_22] | 19 | 26.6 | 20.5 | – | – |
| CUAUGCAGGUCGGCCGCCACUACACACAUGAGGAUCACCCAUGUAGUUACUGGGUGAAGUGGCAGUAGGACCGGGACCUGCAUAU [Brourdmod07] | 273 | 534 | – | – | 799 |
| UGUAUGGACUGAAGGAGCGGAAGAUAACCUGAGGAUCACCCGGGUAAUAAGGCGAAAGCCUUCCAGGUAGGUCGCAGUCCAUACU | 230 | 334 | 250 | 293 | 419 |
| CCUAUCCAGUCGGCCGCCACUGACCAUUUGGAACAGUGGGUGAAUACAUGAGGAUCACCCAUGUACAGGACCGGGACUGUAUAGG [Ex Tryptophan B 21] | 14.4 | 13.1 | 27.9 | 11.2 | 10.4 |
| UGACAUUGCUGCGAUACCAGACAUGAGGAUCACCCAUGUACCAAGAAAACGUACAUAAAUGUCCCUUGGCAGCGCAGCAAUGUCU [MAT - Exclusion Theophlline B - Mod of Eli - D25] | 170 | 593 | 806 | – | – |
| GGGUACAUCGCGGCCGCCACUCAUGUAAAUACCUGAGGAUCACCCUGGUCGAUGGAGACAUCGAAGAGGACCGGGUGAUGUACCG | 91.2 | 371 | 44.6 | 252 | 528 |
| CACAUGAGGAUCACCCAUGUCUGAACUGAAGGAGCGCUAAAUAAGGCAGGUAGGUCGCGGAAUUUUGUGUGCAUAUGCACAUGGG [9.P] | 17.2 | 30.7 | 23.9 | 27.9 | 26.9 |
| GCUUGGGUCGCAAGGCCCUGGCGUUGCGAUACCAGCACGGUAACGUGCCCUUGGCAGCGCACAUGAGGAUCACCCAUGUGGUGCG [#1 Exclusion - Theophylline A Attempt #22 (HarryS)] | 16.5 | 27.8 | 17.4 | 18.3 | 229 |
| AAGGAAAAGGCGGCCGCCACUGGAAAGGCGAAAGCCAAGAAAACAUGAGGAUCACCCAUGUCAUGUAGGACCGGGCCAAAAGGAA | 10 | 26.3 | 23.7 | 21.9 | 14.7 |
| AAUACCGGAUCGGCCGCCACUGGUUGGCCCUGUGUACAUGAGGAUCACCCAUGUCCAUCCCAAGCCAGGACCGGGAUCUUUGUGU [Bedice] | 17.1 | 24.9 | – | – | 18.5 |
| UGUAUGUGAUCUGAUACCAGUCCAACUGGUAAAACAUGAGGAUCACCCAUGUAAAAUUGGGACCCUUGGCAGCAGAUCGCAUACU [ThBS 2] | 259 | 418 | 615 | – | – |
| AUCGUACCUGAUGAUACCAGCAUGUGAUCAUAACAUGAGGAUCACCCAUGUAAUCAGUGAUGCCCUUGGCAGCAUGAUCGGUACA [Same State - Theophylline B (Freestyle 13)] | 45.5 | 79.6 | 56.7 | – | – |

| Sequence | apparent KD of MS2 coat protein (input ligand: arginine 13.2 mM) [nM] | apparent KD of MS2 coat protein [1] [nM] | apparent KD of MS2 coat protein [2] [nM] | apparent KD of MS2 coat protein (input ligand: none) [nM] | apparent KD of MS2 coat protein [3] [nM] |
| --- | --- | --- | --- | --- | --- |
| UGAGAACAUGUCUUUAAGUUUACCUCUGAUACCAGAUUGAAAGGCAUCCCUUGGCAGCAGCAUACAUGAGGAUCACCCAUGUCCU [theeternabot_exclusion_MS2_Theo_A_12] | 64.4 | 119 | 88.9 | – | – |
| GGGCGAGUGGCGCGGCGUGCUCCGCUCCGUCGAGGACCGGUACGGCCGCCACUCGACAUGAGGAUCACCCAUGUGCGAGCUCGCG [#1 Exclusion - Tryptophan A Attempt #12 (HarryS)] | 24.7 | 71.7 | 39.8 | 52.5 | 101 |
| CUGACAUGAGGAUCACCCAUGUACACUGAAGGAGCGUCGAGAAUGACAGGUAGGUCGCAGAAUAAUAAUGGUGAUGUUUAGGUAA [Exclusion Arginine A GF 2] | 24 | 34.1 | 23.4 | 20.8 | 26.3 |
| UGAUCCUGCAGGGAUACCAGCGCCGCUAGAUAACUAUGCACAUGAGGAUCACCCAUGUAACGCCCUUGGCAGCCCAGCUAAAGGG [Same State Theophylline B GF22] | 23.1 | 60.1 | 48.1 | 58.7 | 31.3 |
| GGGCCUGUAAGCAGACCCACAGCGGGUGAUACCAGCAAUAAAACUUGCCCUUGGCAGCACACAGCUACAUGAGGAUCACCCAUGU [Rausis] | 36.4 | 92.9 | 82.4 | – | – |
| UGACAUUGCUCAGAUACCAGACAUGAGGAUCACCCAUGUACCAAGAAAACGUACAUAAAUGUCCCUUGGCAGCUGAGCAAUGUCU [TheoBX 10 #MS2Left #Theo2] | 175 | 535 | 531 | – | – |
| CGUCGAAACUGAAGGAGCGAGAUAACAACAUUGGGUCUCAACAUGAGGAUCACCCAUGUAUCUCAGGUAGGUCGCGGUGUCACCG [Exclusion Arginine B GF19] | 176 | 267 | 217 | 202 | 429 |
| CGAUCCUGCAGGGAUACCAGCGCCGCUUGAUAACUGUGCACAUGAGGAUCACCCAUGUAGCGCCCUUGGCAGCCCAGCUAGAGGG [Same State Theophylline B GF25] | 12.9 | 29.2 | 14.7 | 15 | 13.9 |
| GAUGAACUAUUUGAUACCAGACAACAUGAGGAUCACCCAUGUGCGCGUCGUCCUCUGCCUGUCCCUUGGCAGCAAAUAGUUUAUC [XTheo B #10] | 52.6 | 81.8 | 36.6 | – | – |
| CGGUUUGUGAUGGAUACCAGCAGAGUGGCUGUUUAUCCUGACAUGAGGAUCACCCAUGUGUGCCCUUGGCAGCUGUUGUGGGCUG [8.aB] | 85.8 | 137 | 74.4 | 86.8 | 108 |
| GCUUAGAAACCUGAUACCAGUCAGCCCUAUGACAUGAGGAUCACCCAUGUGAUACUCACGGACCCUUGGCAGCAGGGUCGAUUAC [theeternabot_sameState_MS2_Theo_B_17] | 231 | 812 | 1000 | – | – |
| CGGCCCUCACGUGAGGAUCACCCACGUGAUACCAGCCUGGAAACAGGCCCUUGGCAGCACUAGGUCAUCAAAGAUGACCAAGCCG [TheoAX 27 #OpenEnded #AlternativeMS2] | 11.8 | 14.1 | 11.3 | 10.7 | 18.9 |
| UAAUCGUAGGCGGCCGCCACUUUUUGGUAGUGUCCAUUGUACACUCACAUGAGGAUCACCCAUGUAAGGACCGGGCCCGCAUCAG [theeternabot_exclusion_MS2_Trp_B_32] | 17.9 | 24.7 | – | – | 17.7 |
| AGAUGUAGCGGAAGGAGCGUCAUGAGGAUCACCCAUGACUCCCGUUGUGGGAGUUCCUUAGGUCAGGUAGGUCGCCGUUACGUCA [Omei Arg B SS B v5] | 91.4 | 563 | 426 | 390 | 596 |
| ACCUGCGUUUGAUUCUAUCAGACGCAGGUUCGAGGACCGGUACGGCCGCCACUCGGACAUGAGGAUCACCCAUGUUUGACAUGGG [#04 Exclusion Tryptophan A] | 134 | 281 | – | – | 1010 |
| UGACAUUGCUCAGAUACCAGACAUGAGCAUCAGCCAUGUGCCAACAAGUACAAAAUAAAUGUCCCUUGGCAGCUGAGCAAUGUCU [TheoBX 23 #MS2Left #AlternativeMS2 #Theo22] | 14.1 | 16 | 12.3 | 10.9 | 153 |
| ACAACAUGAGGCGAUACCAGAGGCAACAUGAGGAUCACCCAUGUUCACCCAUGUGAUCACCUCCCUUGGCAGCGCACAUGAGGAU [Same State - Theophylline B #1] | 13.7 | 17 | 12.3 | – | – |
| AGUCUUAUAGGAAGGAGCGCAAUCAUCACAUGAGGAUCACCCAUGUCAAGGUGAGAGUCAUUGCAGGUAGGUCGCCUAACUAAGA [Same State - Arginine B (Freestyle 9)] | 150 | 173 | 213 | 241 | 251 |
